Patent publication US20250206834A1 (published 2025)
Residue numbers refer to the chain shown, from its start. Like-named read-outs stand apart in the source and are kept apart here. Blank lines part the entries; values can stand above or below the binder they belong to.

Experiments:
[1] = molecular target: T1, human 4-1BB (human, UniProt Q07011 24-255); assay: FACS cell binding
[2] = molecular target: T2, human CEACAM5 on cells (human, UniProt P06731 35-685); assay: FACS cell binding; MKN-45 cells
T2 chain: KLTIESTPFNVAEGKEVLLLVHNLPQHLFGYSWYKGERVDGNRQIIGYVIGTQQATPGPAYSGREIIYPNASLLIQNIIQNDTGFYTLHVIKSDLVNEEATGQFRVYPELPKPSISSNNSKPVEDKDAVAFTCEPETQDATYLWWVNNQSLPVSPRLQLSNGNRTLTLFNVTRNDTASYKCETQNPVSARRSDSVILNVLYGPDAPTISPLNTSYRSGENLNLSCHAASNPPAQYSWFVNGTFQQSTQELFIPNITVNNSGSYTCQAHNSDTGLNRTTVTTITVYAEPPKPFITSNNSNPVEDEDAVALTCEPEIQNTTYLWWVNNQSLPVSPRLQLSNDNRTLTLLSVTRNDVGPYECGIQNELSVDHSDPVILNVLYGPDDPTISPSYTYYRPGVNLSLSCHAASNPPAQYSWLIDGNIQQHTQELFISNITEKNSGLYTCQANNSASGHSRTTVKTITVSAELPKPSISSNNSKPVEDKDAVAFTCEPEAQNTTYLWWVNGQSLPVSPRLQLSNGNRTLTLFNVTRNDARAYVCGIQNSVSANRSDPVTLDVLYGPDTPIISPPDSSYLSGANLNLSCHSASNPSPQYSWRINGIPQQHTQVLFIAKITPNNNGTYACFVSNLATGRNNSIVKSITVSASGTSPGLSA

[3] = molecular target: T2, human CEACAM5 on cells; assay: FACS cell binding; MKN-45 cells
[4] = molecular target: T1, human 4-1BB; assay: FACS cell binding; remark: listed apart in the source
[5] = molecular target: T1, human 4-1BB; assay: FACS cell binding; plot key prints IMMU130-263-1-3

T1 sequence (Q07011 24-255): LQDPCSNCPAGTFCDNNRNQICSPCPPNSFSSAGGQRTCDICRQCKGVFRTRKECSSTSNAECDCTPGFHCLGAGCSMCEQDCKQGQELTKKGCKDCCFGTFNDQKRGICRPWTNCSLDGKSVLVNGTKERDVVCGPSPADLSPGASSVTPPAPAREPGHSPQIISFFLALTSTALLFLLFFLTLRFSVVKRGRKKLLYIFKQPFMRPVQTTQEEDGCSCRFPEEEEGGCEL

B2: IMMU130-263-1-3_1 (bispecific antibody, V domains shown)
VH: EVQLVESGGGVVQPGRSLRLSCSASGFDFTTYWMSWVRQAPGKGLEWIGEIHPDSSTINYAPSLKDRFTISRDNAKNTLFLQMDSLRPEDTGVYFCASLYFGFPWFAYWGQGTPVTVSS
VL: DIQLTQSPSSLSASVGDRVTITCKASQDVGTSVAWYQQKPGKAPKLLIYWTSTRHTGVPSRFSGSGSGTDFTFTISSLQPEDIATYYCQQYSLYRSFGQGTKVEIK
VHH: EVQLVESGGGLVQPGGSLRLSCAASGFTFSSSAMSWARQAPGKGFEWVSGIYSGGSTYYTESVKDRFTISRDNSKNTVYLQMNSLKPEDTAVYYCATWGTLRFGVWAEYDHWGQGTQVTVSS
- EC50 [2]: 7.34 nM

B3: IMMU130-263-1-3 (bispecific antibody)
heavy (part 1 of 2): B2 VH
heavy (part 2 of 2): GGGGSGGGGSGGGGSGGGGSEVQLLESGGGLVQPGGSLRLSCAASGFTFSSSAMSWARQTPGKGFEWVSGIYSGGSTYYTESVKDRFTISRDNSKNTVYLQMNSLKPEDTAVYYCATWGTLRFGVWAEYDHWGQGTQVTVSS
light: B2 VL
- EC50 [3]: 5.38 nM
- EC50 [4]: 0.58 nM
- EC50 [5]: 1.23 nM
- EC50 [2]: 8.47 nM

B5: Labetuzumab (antibody, V domains shown)
VH: B2 VH
VL: B2 VL
- EC50 [3]: 3.48 nM
- EC50 [2]: 5.31 nM

Results, then the binder that gave them:

- EC50 [1]: 0.53 nM
B1: VV02-1LP-263 huNb_1_3 (Fc fusion)
VHH: B2 VHH with V5L, A40T

- EC50 [1]: 1.2 nM
- EC50 [2]: 7.75 nM
B4: optimized bispecific antibody with 263 huNb-1-3_2 (bispecific antibody)
heavy (part 1 of 2): B2 VH
heavy (part 2 of 2): B3 heavy (part 2 of 2) with L25V, T60A, S94A, Q137L
light: B2 VL

- EC50 [4]: 0.37 nM
B6: VV02-1SP (1)-73 huNb_1_3 (Fc fusion)
VHH: EVDLVESGGGLVQPGGSLRLSCAVSGFTFSSSAMSWARQAPGKEFEWVSSIYSSGKTYYVESVKGRFTISRDNAKNTVYLQMSSLRPEDTAVYYCATWKTLRVGVWDESDYWGQGTLVTVSS
